The subject of this data set is Escherichia coli TOP10. Description: shrunken log2 fold change of peptide-encoding DNA abundance (4.5 h post-induction vs induction); higher = less antimicrobial activity (less host growth inhibition). The note with it: time post-induction: 4.5 h; library: site-saturation at positions 5, 18, 19, 20.
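Note: peptides expressed intracellularly from a pBAD plasmid library in pooled LB shake-flask culture, induced with 0.3% L-arabinose, DNA abundance read by NGS, three biological replicates, DESeq2 with apeglm shrinkage.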

As to RRIRYRPPRLPRPRPRPTHMPRP, the “shrunken log2 fold change” value was -0.429.

As to RRIRNRPPRLPRPRPRPMFNPRP, the “shrunken log2 fold change” value was -0.868.

With RRIRARPPRLPRPRPRPMTSPRP, the “shrunken log2 fold change” value was found to be 0.237.

Regarding RRIRCRPPRLPRPRPRPEDCPRP, the “shrunken log2 fold change” value worked out at 0.173.

With RRIRHRPPRLPRPRPRPDQAPRP, the “shrunken log2 fold change” value came out at 0.106.

Take RRIRCRPPRLPRPRPRPSTAPRP: the “shrunken log2 fold change” value was 0.0354.

On to RRIRARPPRLPRPRPRPCVNPRP, for which the “shrunken log2 fold change” value stood at 0.194.

As for RRIRIRPPRLPRPRPRPHGCPRP, the “shrunken log2 fold change” value was -0.282.

As to RRIRFRPPRLPRPRPRPAWEPRP, the “shrunken log2 fold change” value was 0.62.

Take RRIRWRPPRLPRPRPRPHIVPRP: the “shrunken log2 fold change” value is -0.102.

Turning to RRIRERPPRLPRPRPRPDQKPRP, the “shrunken log2 fold change” value is -0.0097.

Regarding RRIRCRPPRLPRPRPRPHCRPRP, the “shrunken log2 fold change” value was -0.0478.

As for RRIRERPPRLPRPRPRPREIPRP, the “shrunken log2 fold change” value came out at 0.214.

RRIRFRPPRLPRPRPRPEQDPRP: the “shrunken log2 fold change” value was 1.57.

Regarding RRIRARPPRLPRPRPRPIVMPRP, the “shrunken log2 fold change” value was -0.0831.

As to RRIRFRPPRLPRPRPRPYREPRP, the “shrunken log2 fold change” value was -0.468.

Take RRIRMRPPRLPRPRPRPLPVPRP: the “shrunken log2 fold change” value was determined as 0.872.

With RRIRRRPPRLPRPRPRPMTWPRP, the “shrunken log2 fold change” value is -0.154.

For RRIRSRPPRLPRPRPRPFIEPRP, the “shrunken log2 fold change” value is -0.285.

Turning to RRIRYRPPRLPRPRPRPHQRPRP, the “shrunken log2 fold change” value was -0.0288.

As for RRIRHRPPRLPRPRPRPKHHPRP, the “shrunken log2 fold change” value is -0.493.

Regarding RRIRKRPPRLPRPRPRPDTGPRP, the “shrunken log2 fold change” value is -0.0244.

Take RRIRFRPPRLPRPRPRPHKIPRP: the “shrunken log2 fold change” value is -0.495.

For the sequence RRIRWRPPRLPRPRPRPGLEPRP, the “shrunken log2 fold change” value is 1.46.

RRIRFRPPRLPRPRPRPGHWPRP: the “shrunken log2 fold change” value stood at 0.0649.

As for RRIRSRPPRLPRPRPRPAFFPRP, the “shrunken log2 fold change” value is 0.328.

Turning to RRIRVRPPRLPRPRPRPAFQPRP, the “shrunken log2 fold change” value amounted to 0.151.

Take RRIRIRPPRLPRPRPRPFNCPRP: the “shrunken log2 fold change” value was -0.0819.

As to RRIRKRPPRLPRPRPRPLYLPRP, the “shrunken log2 fold change” value was -0.17.

Take RRIRHRPPRLPRPRPRPFLPPRP: the “shrunken log2 fold change” value is -0.671.

For RRIRYRPPRLPRPRPRPGKMPRP, the “shrunken log2 fold change” value was 0.00758.

On to RRIRSRPPRLPRPRPRPISAPRP, for which the “shrunken log2 fold change” value is -0.256.

As to RRIRKRPPRLPRPRPRPIDKPRP, the “shrunken log2 fold change” value came to 0.0797.

For RRIRSRPPRLPRPRPRPNYCPRP, the “shrunken log2 fold change” value is -0.352.

Turning to RRIRYRPPRLPRPRPRPRKAPRP, the “shrunken log2 fold change” value stood at 0.00796.

Turning to RRIRQRPPRLPRPRPRPKDPPRP, the “shrunken log2 fold change” value is -0.000135.

Consider RRIRTRPPRLPRPRPRPMSVPRP, for which the “shrunken log2 fold change” value is -0.00965.

For RRIRHRPPRLPRPRPRPTWMPRP, the “shrunken log2 fold change” value is 3.02.

Consider RRIRYRPPRLPRPRPRPQTDPRP, for which the “shrunken log2 fold change” value is -0.274.

In the case of RRIRKRPPRLPRPRPRPATRPRP, the “shrunken log2 fold change” value stood at 0.423.

For RRIRARPPRLPRPRPRPKWIPRP, the “shrunken log2 fold change” value was determined as 0.0218.

For RRIRIRPPRLPRPRPRPLHKPRP, the “shrunken log2 fold change” value is -0.165.

As for RRIRQRPPRLPRPRPRPLINPRP, the “shrunken log2 fold change” value is -0.305.

Take RRIRFRPPRLPRPRPRPWYEPRP: the “shrunken log2 fold change” value is -0.0991.

Regarding RRIRWRPPRLPRPRPRPMNRPRP, the “shrunken log2 fold change” value was -0.00448.

Take RRIRRRPPRLPRPRPRPTDNPRP: the “shrunken log2 fold change” value is 0.277.

Turning to RRIRFRPPRLPRPRPRPKNKPRP, the “shrunken log2 fold change” value is -0.384.

In the case of RRIRNRPPRLPRPRPRPEKEPRP, the “shrunken log2 fold change” value is -0.159.

RRIRPRPPRLPRPRPRPSGPPRP: the “shrunken log2 fold change” value was -0.174.

Turning to RRIRTRPPRLPRPRPRPHSLPRP, the “shrunken log2 fold change” value was found to be 0.0291.

With RRIRIRPPRLPRPRPRPVNMPRP, the “shrunken log2 fold change” value is -0.103.

On to RRIRYRPPRLPRPRPRPSGQPRP, for which the “shrunken log2 fold change” value is -0.000925.

As to RRIRYRPPRLPRPRPRPNCKPRP, the “shrunken log2 fold change” value is -0.504.

In the case of RRIRGRPPRLPRPRPRPHQDPRP, the “shrunken log2 fold change” value worked out at 0.165.

With RRIRHRPPRLPRPRPRPWYEPRP, the “shrunken log2 fold change” value was -1.06.

Take RRIRDRPPRLPRPRPRPMLQPRP: the “shrunken log2 fold change” value stood at 0.0454.

For the sequence RRIRVRPPRLPRPRPRPKIWPRP, the “shrunken log2 fold change” value came out at 0.0958.

Turning to RRIRHRPPRLPRPRPRPGNLPRP, the “shrunken log2 fold change” value was -0.0177.

Take RRIRERPPRLPRPRPRPKDHPRP: the “shrunken log2 fold change” value was -0.323.

Regarding RRIRFRPPRLPRPRPRPDAKPRP, the “shrunken log2 fold change” value was 0.417.

Regarding RRIRFRPPRLPRPRPRPWWFPRP, the “shrunken log2 fold change” value was -0.395.

As for RRIRLRPPRLPRPRPRPISAPRP, the “shrunken log2 fold change” value was -0.053.

The record behind these values is the supplement of paper PMC9112550, “Optimization of the antimicrobial peptide Bac7 by deep mutational scanning” (BMC Biology, 2022).
